From the supplement of paper PMC10126150
± gives the standard deviation of the averaged measurements.

system: ATP; assay: switch fluorescence ratio, 500 uM ATP over buffer (Cy3 cluster intensity, sum of 5 cycles each) (fold (ratio)); higher = stronger signal-on switching upon ATP binding; sequences stand for … in TCGTCGGCAGCGTCAGATGTGTATAAGAGACAGTTTTTTTTTTTTTTTTTTTTTTTTT…TC; conditions: aptamer strand: ATP DNA aptamer (quencher-CACCTGGGGGAGTATTGCGGAGGAAGG + anchor), 100 nM annealed; ATP concentration: 500 uM
Procedure, shortened: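 Switching-strand clusters labelled with Cy3 on a modified Illumina MiSeq flow-cell were annealed to 100 nM quencher-labelled ATP aptamer, imaged in selection buffer, and re-imaged after 15 min with 500 uM ATP at 22 °C. This was done over five cycles with NaOH stripping and re-annealing in between. The fluorescence ratio is summed target-cycle over summed buffer-cycle Cy3 intensity per cluster, averaged per switch-domain sequence, excluding clusters outside 100-1000 RFU.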
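Also: ATP exposure 15 min at 22 °C before imaging.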

In order of rising switch fluorescence ratio:
1. GTGGGGCAGC  0.945 ± 0.015
2. TGTGGGACGT  0.952 ± 0.01
3. AAATTGGGAT  0.9636 ± 0.0093
4. TGGTATAACG  0.964 ± 0.025
5. TTTAGTGTAA  0.966 ± 0.019
6. GTTTGTAGTT  0.968 ± 0.037
7. GGATTCTAGG  0.969 ± 0.02
8. GTTTTTAGAT  0.9709 ± 0.0092
9. ATGAAAAGGA  0.97123 ± 0.00096
10. TTTTGTCGCG  0.9735 ± 0.0032
11. GAGCCAGGCA  0.974 ± 0.042
12. CGTGGTTATG  0.975 ± 0.06
13. GGTCTGGGCT  0.976 ± 0.017
14. TAGTTTCGAT  0.977 ± 0.019
15. CGGGGTGGCT  0.977 ± 0.16
16. TTATGCATCG  0.9768 ± 0.0047
17. GAAAATTGCC  0.978 ± 0.075
18. GGGGGGCTGC  0.978 ± 0.036
19. TATGGTCTTT  0.979 ± 0.019
20. TTTTTAGTAA  0.979 ± 0.028
21. CTATCATAGT  0.98 ± 0.032
22. GACAAGGGGG  0.981 ± 0.065
23. TAGTGCTTGG  0.9827 ± 0.0087
24. TCAGAATGGG  0.9833 ± 0.0047
25. GTATTAATTT  0.9833 ± 0.0046
26. GGGGTGTACC  0.985 ± 0.033
27. AATTTGATGC  0.985 ± 0.018
28. CATTGGTGTG  0.985 ± 0.047
29. CGTGTTTTTG  0.986 ± 0.02
30. TCGTTGGGGT  0.987 ± 0.029
31. TGGTTGAGAC  0.988 ± 0.016
32. TTATTAGTTA  0.988 ± 0.011
33. TTTCAATAAT  0.988 ± 0.023
34. CTAATTTTTC  0.9878 ± 0.0026
35. AGAAGGGGGC  0.989 ± 0.062
36. TACCTTTTGG  0.99 ± 0.026
37. GGATGAGTGC  0.99 ± 0.023
38. GGGGCTAGCG  0.99 ± 0.02
39. AAGTAGGCTC  0.991 ± 0.007
40. TTCTGGGGGG  0.991 ± 0.027
41. TCAAATCGTT  0.992 ± 0.0074
42. GATTCTAGGG  0.9918 ± 0.0017
43. TTTAGGCCCC  0.993 ± 0.044
44. GTCTAAGGAA  0.993 ± 0.016
45. ATTATCGTAG  0.994 ± 0.035
46. ATAACTTGGG  0.994 ± 0.041
47. AATGGGGCTT  0.995 ± 0.03
48. TCACATTTTA  0.995 ± 0.04
49. GGGGTTTGAT  0.996 ± 0.021
50. CGTGGGGGTA  0.996 ± 0.025
51. TGATTAATGA  0.996 ± 0.034
52. AACGACTGGG  0.997 ± 0.051
53. GAGGGGCGCG  0.997 ± 0.065
54. TGGCGGATTT  0.998 ± 0.031
55. TTGGTTGAAT  0.998 ± 0.011
56. ATCAAAGCGG  0.998 ± 0.0094
57. GGGTCATTGA  0.998 ± 0.024
58. CTTGAAAGAT  0.99786 ± 0.00087
59. AATTGCCGTG  0.99946 ± 0.00023
60. AGAGGGATTA  0.999 ± 0.037
61. CGATTATCGG  0.999 ± 0.014
62. GTTAGCCTTG  1 ± 0.039
63. ATAAGTATGT  1 ± 0.018
64. ATGAGTTCTC  1 ± 0.042
65. ATATTCAGTA  1 ± 0.015
66. TTAGGATATA  1 ± 0.046
67. GGTTTTAACA  1 ± 0.051
68. TTGGCCGGAG  1.001 ± 0.0084
69. GTGGGGGGAG  1 ± 0.026
70. TCGTATAGAG  1 ± 0.017
71. TGCCTTTTTT  1 ± 0.016
72. ATCCGTTTTT  1 ± 0.016
73. CATGTAGCGT  1 ± 0.027
74. TGGATTGGGT  1 ± 0.046
75. ACTGGGAGTG  1 ± 0.042
76. TAATCTGAGT  1.01 ± 0.025
77. TTAGCGCTGG  1.01 ± 0.015
78. GCGCACCTTT  1.01 ± 0.029
79. AACGTAGTGT  1.01 ± 0.047
80. GAAGGGGTGG  1.01 ± 0.037
81. CTGAAGGATT  1.01 ± 0.011
82. ATTTGAAGTA  1.01 ± 0.04
83. AGGAGGACGG  1.01 ± 0.042
84. AAAAACGCTT  1.01 ± 0.045
85. ATCTGCATGA  1.01 ± 0.063
86. CAACGTTTTT  1.01 ± 0.037
87. AATAGAGGAG  1.012 ± 0.007
88. GTGATAAAGG  1.01 ± 0.03
89. TGTTTCTTTT  1.01 ± 0.024
90. ATCTGTGGA  1.015 ± 0.0024
91. GGCTGGACGG  1.01 ± 0.011
92. AGAATTAAGG  1.01 ± 0.045
93. ACTAGGTGGG  1.01 ± 0.041
94. GCCAGTGTTT  1.02 ± 0.056
95. GGTAGTGGGC  1.02 ± 0.034
96. ACGCCTGGGC  1.02 ± 0.023
97. GGCCGTTTGA  1.02 ± 0.048
98. GGGCCTTTAT  1.017 ± 0.0089
99. CAGATAGTGT  1.018 ± 0.002
100. TTGACGTGCC  1.021 ± 0.0033
101. GAAGAAAGAG  1.02 ± 0.022
102. GAGGTTGTAC  1.02 ± 0.012
103. CTGGCTGTCT  1.02 ± 0.036
104. AATTATTACT  1.02 ± 0.034
105. AGAAAGTCAA  1.0199 ± 1.9e-05
106. TGGAACCGGA  1.02 ± 0.011
107. AACCTCTCGG  1.033 ± 0.0039
108. CGTGTAAGAT  1.03 ± 0.047
109. CCGGGTATTG  1.027 ± 0.0036
110. TTGGGGCTTA  1.03 ± 0.038
111. ACAAATTGGG  1.03 ± 0.092
112. GGTTTATGGA  1.03 ± 0.024
113. TTCCTCGGGT  1.03 ± 0.014
114. GAGACTTGGG  1.03 ± 0.029
115. TTTTATTTCG  1.03 ± 0.068
116. TGGTGCATGG  1.03 ± 0.024
117. ACTTTGCTAG  1.03 ± 0.024
118. TTGGCCGGGT  1.042 ± 0.0059
119. GGGGTTGGTC  1.04 ± 0.048
120. AAAATGTGAC  1.039 ± 0.007
121. CATTGCTTGG  1.039 ± 0.0012
122. ACTAAGGCTC  1.04 ± 0.051
123. TAGGTTACCC  1.04 ± 0.046
124. TAAGGAATGT  1.04 ± 0.0038
125. TTCCTAATGG  1.04 ± 0.046
126. AGGCCCGGAG  1.05 ± 0.045
127. TTTTTTATCT  1.05 ± 0.07
128. CGAACTCCTG  1.05 ± 0.014
129. GTTGTCGGGT  1.05 ± 0.12
130. CACTATGGTG  1.05 ± 0.066
131. ACGGCTTTCG  1.05 ± 0.097
132. TAATTTCCTT  1.06 ± 0.16
133. CGTGCAGGGG  1.057 ± 0.0013
134. AACGTGACAG  1.06 ± 0.046
135. CGTAGTTTAT  1.07 ± 0.022
136. CTGTTGAAAA  1.07 ± 0.022
137. AAATACGCAG  1.07 ± 0.1
138. AAAGAACCG  1.085 ± 0.0014
139. AATTGTGCCG  1.1 ± 0.17
140. TACTTGAGGC  1.11 ± 0.21
141. GAAGTAAGAG  1.11 ± 0.019
142. ACGATCAAGG  1.13 ± 0.024
143. CGAGCTTATC  1.2 ± 0.056
144. CCATGCGATG  1.21 ± 0.1
145. AAGTCACATC  1.22 ± 0.19
146. TACGCATAAT  1.37 ± 0.014
147. CCGATTAAAT  1.44 ± 0.1
148. GAGCGAATAG  1.46 ± 0.055
149. ACCTCAGCTT  1.48 ± 0.021
150. AAAGGTGGGT  1.51 ± 0.86
151. TTTTTAACCT  1.57 ± 0.36
152. GAGTCCGCCT  1.6 ± 0.093
153. TCCTCGTCTC  1.69 ± 0.038
154. CACAGGTGCG  2.23 ± 0.08
155. TGACCCGTAC  2.64 ± 1.7
156. TCCAGGTGTG  2.77 ± 0.42
157. CTTCCTTTTT  3.13 ± 3
